Laboratory results taken from patent publication US20210269548A1 (Kyowa Kirin, published 2021).

What was measured:
[1] = biological target: T1, mouse CSPG5 (mouse, UniProt Q71M36 31-566); assay: FACS, 10 µg/mL antibody, mouse CSPG5/Expi293F vs Expi293F
T1 construct: Full-length gene expressed on Expi293F cells; also called mouse CSPG5/Expi293F cells
T1 sequence: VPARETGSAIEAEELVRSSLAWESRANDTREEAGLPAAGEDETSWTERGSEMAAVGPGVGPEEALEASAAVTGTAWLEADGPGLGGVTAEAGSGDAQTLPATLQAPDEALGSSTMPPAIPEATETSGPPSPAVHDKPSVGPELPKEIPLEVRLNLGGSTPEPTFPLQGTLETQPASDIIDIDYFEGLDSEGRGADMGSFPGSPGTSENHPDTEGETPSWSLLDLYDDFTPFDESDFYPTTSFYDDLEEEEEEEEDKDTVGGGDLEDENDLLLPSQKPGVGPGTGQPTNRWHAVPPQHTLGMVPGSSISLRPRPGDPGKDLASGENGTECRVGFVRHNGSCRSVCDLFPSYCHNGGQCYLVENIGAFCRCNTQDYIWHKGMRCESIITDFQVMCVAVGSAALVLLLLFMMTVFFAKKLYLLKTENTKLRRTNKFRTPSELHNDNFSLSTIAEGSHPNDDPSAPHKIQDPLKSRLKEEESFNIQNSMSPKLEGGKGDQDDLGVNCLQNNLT
Description: (§1) Expi293F cells, human CSPG5/Expi293F cells, mouse CSPG5/Expi293F cells, and monkey CSPG5/Expi293F cells were separately suspended in Staining Buffer (SB) of PBS comprising 0.1% NaN₃ and 1% FBS and dispensed in a round-bottom 96-well plate (manufactured by Becton, Dickinson and Company). After centrifugation (2000 rpm, 4° C., 2 minutes), the supernatant was removed, and to the resulting pellet, 10 μg/mL of each antibody obtained in Example 2 was added to suspend the pellet, and the resulting suspension was left to stand for 30 minutes at ice temperature. After further centrifugation (2000 rpm, 4° C., 2 minutes), the supernatant was removed, and the resulting pellet was washed with SB, and thereafter, 1 μg/mL of an RPE fluorescently labeled goat anti-human antibody (manufactured by Southern Biotech, Inc.) was added thereto, and the resultant was incubated for 30 minutes at ice temperature. After washing with SB, the cells were suspended in SB, and the fluorescence intensity of each cell was measured using a flow cytometer FACS CANTO II (manufactured by Becton, Dickinson and Company). Note that as a negative control, 10 μg/mL of the anti-AVM antibody was used.
(§2) The detection results were analyzed, and a mean fluorescence intensity (MFI) was calculated using a geometric mean. Further, with respect to the MFI when the concentration of each antibody was 10 μg/mL, the ratio of the MFI (mean fluorescence intensity ratio) between the human CSPG5/Expi293F cells and the Expi293F cells (parent cell line) was calculated. Also for the monkey CSPG5/Expi293F cells and the mouse CSPG5/Expi293F cells, the mean fluorescence intensity ratio relative to the Expi293F cells (parent cell line) was calculated by the same procedure, and the results are shown in Table 3.

[2] = biological target: T2, monkey CSPG5 (monkey (rhesus monkey), UniProt O95196 31-566 (human entry)); assay: FACS, 10 µg/mL antibody, monkey CSPG5/Expi293F vs Expi293F
T2 construct: Full-length gene expressed on Expi293F cells; also called monkey CSPG5/Expi293F cells; rhesus monkey CSPG5
T2 chain: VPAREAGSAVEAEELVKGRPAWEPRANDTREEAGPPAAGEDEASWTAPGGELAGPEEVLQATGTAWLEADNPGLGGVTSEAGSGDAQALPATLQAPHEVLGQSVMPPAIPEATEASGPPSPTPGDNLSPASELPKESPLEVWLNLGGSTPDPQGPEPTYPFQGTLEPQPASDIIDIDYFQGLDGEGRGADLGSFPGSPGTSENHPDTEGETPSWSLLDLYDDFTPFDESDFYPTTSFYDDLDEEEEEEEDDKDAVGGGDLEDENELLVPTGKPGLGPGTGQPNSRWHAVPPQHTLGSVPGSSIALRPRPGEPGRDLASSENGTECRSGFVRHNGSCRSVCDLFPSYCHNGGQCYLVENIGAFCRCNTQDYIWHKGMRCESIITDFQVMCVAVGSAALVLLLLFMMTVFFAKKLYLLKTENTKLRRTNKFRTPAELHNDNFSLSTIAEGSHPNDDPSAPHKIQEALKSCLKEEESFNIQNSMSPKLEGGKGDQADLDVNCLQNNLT
Description: as §1, §2

[3] = biological target: T3, human CSPG5 (human, UniProt O95196 31-566); assay: FACS, 10 µg/mL antibody, human CSPG5/Expi293F vs Expi293F
T3 construct: Full-length gene expressed on cell membrane (Expi293F, L929); also called human CSPG5/Expi293F cells; human CSPG5/L929#09
T3 sequence: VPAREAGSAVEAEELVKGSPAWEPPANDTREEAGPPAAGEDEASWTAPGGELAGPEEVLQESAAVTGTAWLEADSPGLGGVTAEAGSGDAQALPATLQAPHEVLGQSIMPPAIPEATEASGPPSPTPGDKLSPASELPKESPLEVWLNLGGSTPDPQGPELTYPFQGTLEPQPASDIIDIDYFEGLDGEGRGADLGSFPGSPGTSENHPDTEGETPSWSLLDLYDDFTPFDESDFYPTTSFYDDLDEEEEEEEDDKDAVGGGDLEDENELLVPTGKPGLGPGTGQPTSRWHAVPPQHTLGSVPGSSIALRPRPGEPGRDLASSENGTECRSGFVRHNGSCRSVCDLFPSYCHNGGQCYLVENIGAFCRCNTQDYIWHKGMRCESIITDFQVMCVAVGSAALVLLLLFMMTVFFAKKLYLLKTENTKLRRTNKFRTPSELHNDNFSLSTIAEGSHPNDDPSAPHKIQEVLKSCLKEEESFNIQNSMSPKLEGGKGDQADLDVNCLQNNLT
Description: as §1, §2

[4] = biological target: mouse CSPG5-GST (mouse); assay: SPR Biacore T-100, antibody captured, mouse CSPG5-GST analyte
Description: The affinity of the anti-CSPG5 antibodies, the CSPG5202 IgG4PE(R409K), and the AVM IgG4PE(R409K) CSPG5202 dscFv produced in Example 2 for human CSPG5 and mouse CSPG5 was measured using Biacore T-100 (GE Healthcare).
Each of the antibodies was immobilized on a […] sensor chip using a Human antibody Capture kit, and the binding ability was evaluated using human CSPG5-GST and mouse CSPG5-GST produced in Example 4 as analytes. The obtained sensorgram was analyzed with BIA evaluation software, and the dissociation constant (KD value) was calculated.

[5] = biological target: T1, mouse CSPG5; assay: FACS on CSPG5/Expi293F cells
Description: as §1

[6] = biological target: T2, monkey CSPG5; assay: FACS on CSPG5/Expi293F cells
Description: as §1

[7] = biological target: T3, human CSPG5; assay: FACS on CSPG5/Expi293F cells
Description: as §1

Binder | Mean fluorescence intensity ratio [1] | Mean fluorescence intensity ratio [2] | Mean fluorescence intensity ratio [3] | Kd [4] [nM] | binding result [5] | binding result [6] | binding result [7]
CSPG5168 scFv-hG4PE(R409K) (Fc fusion, also called anti-CSPG5 scFv-Fc antibody) VH: EVQLVETGGALVQPGGSLRLSCAGSGFIFSKYEMTWVRQAPGKGLEWVSTIGSLGLKTFYTDSVKGRFTTSRDNSRDTLFLQMDNLRVEDTAIYFCVKGGIRRADYWGKGTLVTVSS VL: EIVMTQSPATLSLSPGERATLSCRASQSVSSYLAWYQQKPGQAPRLLIYDASNRATGIPARFSGSGSGTDFTLTISSLEPEDFAVYYCQQRSNWPLTFGGGTKVEIK | 5.81 ratio to parent cell line | 3.36 ratio to parent cell line | 5.46 ratio to parent cell line | ≤ 10 | – | – | –
AVM IgG4PE(R409K) CSPG5202 dscFv (bispecific antibody, also called anti-AVM-IgG4-CSPG5 dscFv bispecific antibody) heavy: not shown light: QFVLSQPNSVSTNLGSTVKLSCKRSTGNIGSNYVSWYQQHEGRSPTTMIYRDDKRPDGVPDRFSGSIDRSSDSALLTINNVQTEDEADYFCQSYSSGINIFGGGTKLTVLGQPKAAPSVTLFPPSSEELQANKATLVCLISDFYPGAVTVAWKADSSPVKAGVETTTPSKQSNNKYAASSYLSLTPEQWKSHRSYSCQVTHEGSTVEKTVAPTECS | – | – | – | ≤ 10 | binds | binds | binds
